Data from the supplement of paper PMC10065799, “High-throughput profiling of sequence recognition by tyrosine kinases and SH2 domains using bacterial peptide display” (eLife, 2023).

Target: Hck (UniProt P08631)
Experiment: phosphorylation enrichment, bacterial display (enrichment ratio); higher = better substrate or ligand; peptides without Tyr show the background
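Also: 11-residue human phosphosite peptides and single-mutation variants displayed on the E. coli surface, counted by deep sequencing, each peptide's frequency after selection divided by its frequency in the unselected input library; frequency after pTyr selection over input frequency; kinase dosed for 20-30% of maximal phosphorylation in three min.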

Chain of Hck (P08631 whole entry, looked up): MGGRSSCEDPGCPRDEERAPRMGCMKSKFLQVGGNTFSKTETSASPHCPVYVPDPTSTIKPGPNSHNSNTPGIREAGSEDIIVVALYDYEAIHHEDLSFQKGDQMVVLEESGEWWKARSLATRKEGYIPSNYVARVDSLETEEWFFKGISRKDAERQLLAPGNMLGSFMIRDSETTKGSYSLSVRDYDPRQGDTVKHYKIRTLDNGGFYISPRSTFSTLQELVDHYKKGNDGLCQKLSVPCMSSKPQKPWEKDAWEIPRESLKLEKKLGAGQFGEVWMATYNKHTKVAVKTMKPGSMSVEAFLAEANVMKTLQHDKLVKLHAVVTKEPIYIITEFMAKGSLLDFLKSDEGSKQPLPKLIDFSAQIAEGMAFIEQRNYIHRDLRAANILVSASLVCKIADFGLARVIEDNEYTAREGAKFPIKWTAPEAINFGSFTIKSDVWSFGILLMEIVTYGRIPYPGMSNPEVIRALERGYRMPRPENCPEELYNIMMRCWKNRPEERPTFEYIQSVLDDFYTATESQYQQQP

| Sequence | phosphorylation enrichment |
| --- | --- |
| EAVSIYQFHGQ [CBLC_Y402] | 3.09 |
| VMSGPYELKAL [IL1B_Y140] | 0.491 |
| ANSPVYVPTTR [GATA6_Y188_S184N] | 0.583 |
| GLPQTYCVSGP [DYSF_Y1684] | 0.631 |
| DDSNLYINVKL [MTHFD1_Y52] | 0.607 |
| FPKDVYVDSKD [NDUFAF4_Y69_L65P] | 0.444 |
| VSRGRYRPQEC [B4GALT4_Y113] | 0.49 |
| QPGDIYHQTWA [GBA_Y244] | 3.66 |
| MRTMGYMPTEM [CABP5_Y62] | 0.456 |
| SVVVPYEPPED [TP53_Y220_V225D] | 0.544 |
| GEHSIYCTVNN [CD55_Y266] | 5.61 |
| PNRILYGDFRQ [MYH6_Y717] | 4.43 |
| IAAEYYDNLPH [DEGS1_Y284] | 2.42 |
| FTNRSYDLDFD [MYC_Y12_N11S_YF] | 0.64 |
| YLTSSYINIST [IL23R_Y178] | 0.637 |
| IKGNMYFENSF [EGFR_Y112_R108K_YF] | 0.397 |
| ITVPAYFNDSQ [HSPA9_Y196] | 0.528 |

| Sequence | phosphorylation enrichment |
| --- | --- |
| ITNVLYHVVGW [GBA_Y412_L410V] | 4.59 |
| FETDFYRKGGK [INSR_Y1190_YF] | 0.418 |
| RPCVVYGGADI [DDX3X_Y301] | 1.12 |
| ASIVDYNIIGW [MYH7_Y588_G584S] | 0.605 |
| RGSQQYRALTV [TUBB8_Y281] | 0.866 |
| EDAHHYLCKEV [JAK2_Y382_A377E] | 0.439 |
| DFKIIYIVPMR [SNRNP200_Y540_A542V] | 0.382 |
| RRDRDYTNLPS [CSF1R_Y923_E920D] | 0.673 |
| LRAGVYHEKDQ [DNM2_Y626_P627H] | 0.605 |
| QGRQTYLLQPA [DDR2_Y813_P815L] | 0.411 |
| KPGLKYVTFGN [GALNTL5_Y404_YF] | 0.498 |
| TLARLYHPDST [LRIG1_Y1029] | 0.416 |
| SVTSTYSPALN [TP53_Y126_C124S] | 0.459 |
| EYGFRYELVQY [UGGT2_Y1289] | 0.674 |
| RDMMDYMLQGV [CYP21A2_Y259] | 0.581 |
| IRTIDYRYTVW [IDS_Y497] | 0.535 |

Target: Jak2 (UniProt O60674)
Sequence (O60674 whole entry, looked up): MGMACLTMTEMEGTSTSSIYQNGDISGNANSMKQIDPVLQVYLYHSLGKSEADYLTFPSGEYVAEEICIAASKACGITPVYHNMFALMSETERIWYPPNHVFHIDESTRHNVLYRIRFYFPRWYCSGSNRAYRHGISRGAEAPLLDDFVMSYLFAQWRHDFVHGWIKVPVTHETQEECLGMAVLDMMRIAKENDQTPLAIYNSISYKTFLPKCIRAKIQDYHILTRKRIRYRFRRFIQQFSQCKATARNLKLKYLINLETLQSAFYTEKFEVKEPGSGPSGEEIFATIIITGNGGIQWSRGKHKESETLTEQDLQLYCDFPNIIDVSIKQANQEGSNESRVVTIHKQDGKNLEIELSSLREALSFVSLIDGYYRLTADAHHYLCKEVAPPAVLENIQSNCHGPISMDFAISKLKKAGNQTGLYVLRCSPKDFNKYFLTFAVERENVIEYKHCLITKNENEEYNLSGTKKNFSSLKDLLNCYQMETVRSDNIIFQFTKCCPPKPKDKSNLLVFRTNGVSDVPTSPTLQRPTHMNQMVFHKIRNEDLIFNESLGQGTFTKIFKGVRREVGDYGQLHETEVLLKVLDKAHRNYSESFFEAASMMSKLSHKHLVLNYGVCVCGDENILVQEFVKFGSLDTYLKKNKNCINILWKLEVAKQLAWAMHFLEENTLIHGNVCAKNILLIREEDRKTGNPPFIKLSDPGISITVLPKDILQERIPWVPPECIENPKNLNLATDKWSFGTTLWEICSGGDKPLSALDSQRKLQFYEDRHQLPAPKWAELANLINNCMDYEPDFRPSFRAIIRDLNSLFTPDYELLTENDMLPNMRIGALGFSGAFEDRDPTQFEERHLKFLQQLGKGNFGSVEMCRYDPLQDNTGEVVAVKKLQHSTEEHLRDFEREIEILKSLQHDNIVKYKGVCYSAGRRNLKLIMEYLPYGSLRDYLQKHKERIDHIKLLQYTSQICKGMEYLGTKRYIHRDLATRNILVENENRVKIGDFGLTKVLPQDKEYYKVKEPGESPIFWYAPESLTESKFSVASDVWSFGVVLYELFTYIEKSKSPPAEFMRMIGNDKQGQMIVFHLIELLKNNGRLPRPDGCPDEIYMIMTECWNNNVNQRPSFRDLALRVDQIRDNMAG
Experiment: as above

| Sequence | phosphorylation enrichment |
| --- | --- |
| EAVSIYQFHGQ [CBLC_Y402] | 0.852 |
| VMSGPYELKAL [IL1B_Y140] | 0.463 |
| ANSPVYVPTTR [GATA6_Y188_S184N] | 0.821 |
| GLPQTYCVSGP [DYSF_Y1684] | 0.609 |
| DDSNLYINVKL [MTHFD1_Y52] | 1.56 |
| FPKDVYVDSKD [NDUFAF4_Y69_L65P] | 0.769 |
| VSRGRYRPQEC [B4GALT4_Y113] | 0.655 |
| QPGDIYHQTWA [GBA_Y244] | 0.938 |
| MRTMGYMPTEM [CABP5_Y62] | 0.507 |
| SVVVPYEPPED [TP53_Y220_V225D] | 1.15 |
| GEHSIYCTVNN [CD55_Y266] | 1.22 |
| PNRILYGDFRQ [MYH6_Y717] | 0.862 |
| IAAEYYDNLPH [DEGS1_Y284] | 0.98 |
| FTNRSYDLDFD [MYC_Y12_N11S_YF] | 0.922 |
| YLTSSYINIST [IL23R_Y178] | 1.81 |
| IKGNMYFENSF [EGFR_Y112_R108K_YF] | 1.02 |
| ITVPAYFNDSQ [HSPA9_Y196] | 1.02 |

| Sequence | phosphorylation enrichment |
| --- | --- |
| ITNVLYHVVGW [GBA_Y412_L410V] | 1.87 |
| FETDFYRKGGK [INSR_Y1190_YF] | 0.6 |
| RPCVVYGGADI [DDX3X_Y301] | 0.668 |
| ASIVDYNIIGW [MYH7_Y588_G584S] | 0.947 |
| RGSQQYRALTV [TUBB8_Y281] | 0.77 |
| EDAHHYLCKEV [JAK2_Y382_A377E] | 0.632 |
| DFKIIYIVPMR [SNRNP200_Y540_A542V] | 0.952 |
| RRDRDYTNLPS [CSF1R_Y923_E920D] | 0.639 |
| LRAGVYHEKDQ [DNM2_Y626_P627H] | 1.08 |
| QGRQTYLLQPA [DDR2_Y813_P815L] | 0.726 |
| KPGLKYVTFGN [GALNTL5_Y404_YF] | 0.605 |
| TLARLYHPDST [LRIG1_Y1029] | 0.609 |
| SVTSTYSPALN [TP53_Y126_C124S] | 0.465 |
| EYGFRYELVQY [UGGT2_Y1289] | 1.62 |
| RDMMDYMLQGV [CYP21A2_Y259] | 1.63 |
| IRTIDYRYTVW [IDS_Y497] | 0.929 |

Target: MERTK (UniProt Q12866)
Sequence (Q12866 whole entry, looked up): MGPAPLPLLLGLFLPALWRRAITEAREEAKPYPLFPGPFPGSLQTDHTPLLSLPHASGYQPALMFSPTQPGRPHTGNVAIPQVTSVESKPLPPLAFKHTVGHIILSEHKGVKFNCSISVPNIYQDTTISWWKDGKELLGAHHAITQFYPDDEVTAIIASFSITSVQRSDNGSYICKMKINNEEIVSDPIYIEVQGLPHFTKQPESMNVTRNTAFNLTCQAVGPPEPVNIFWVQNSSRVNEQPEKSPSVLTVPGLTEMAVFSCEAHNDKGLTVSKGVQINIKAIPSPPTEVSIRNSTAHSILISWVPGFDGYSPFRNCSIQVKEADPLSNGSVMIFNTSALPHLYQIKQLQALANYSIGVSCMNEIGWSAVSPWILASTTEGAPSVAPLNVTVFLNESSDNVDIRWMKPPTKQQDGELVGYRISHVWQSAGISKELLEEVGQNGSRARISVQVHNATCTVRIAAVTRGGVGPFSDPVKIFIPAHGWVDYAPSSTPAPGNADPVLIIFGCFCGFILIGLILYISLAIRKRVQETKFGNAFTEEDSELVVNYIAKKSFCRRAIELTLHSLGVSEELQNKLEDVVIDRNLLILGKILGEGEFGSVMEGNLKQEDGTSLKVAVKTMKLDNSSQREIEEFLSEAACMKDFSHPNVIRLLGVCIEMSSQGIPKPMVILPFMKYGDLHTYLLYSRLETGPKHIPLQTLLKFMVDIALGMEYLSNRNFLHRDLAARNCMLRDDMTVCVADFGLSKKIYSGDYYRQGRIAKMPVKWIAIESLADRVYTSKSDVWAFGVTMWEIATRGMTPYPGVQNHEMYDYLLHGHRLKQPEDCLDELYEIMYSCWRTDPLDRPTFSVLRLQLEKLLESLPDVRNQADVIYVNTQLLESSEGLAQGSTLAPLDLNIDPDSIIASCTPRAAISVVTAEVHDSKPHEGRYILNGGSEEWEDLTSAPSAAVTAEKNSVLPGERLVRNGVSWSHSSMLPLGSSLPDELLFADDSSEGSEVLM
Experiment: as above

| Sequence | phosphorylation enrichment |
| --- | --- |
| EAVSIYQFHGQ [CBLC_Y402] | 5.19 |
| VMSGPYELKAL [IL1B_Y140] | 0.351 |
| ANSPVYVPTTR [GATA6_Y188_S184N] | 0.468 |
| GLPQTYCVSGP [DYSF_Y1684] | 0.605 |
| DDSNLYINVKL [MTHFD1_Y52] | 0.424 |
| FPKDVYVDSKD [NDUFAF4_Y69_L65P] | 0.377 |
| VSRGRYRPQEC [B4GALT4_Y113] | 0.575 |
| QPGDIYHQTWA [GBA_Y244] | 2.84 |
| MRTMGYMPTEM [CABP5_Y62] | 0.344 |
| SVVVPYEPPED [TP53_Y220_V225D] | 0.441 |
| GEHSIYCTVNN [CD55_Y266] | 2.08 |
| PNRILYGDFRQ [MYH6_Y717] | 0.622 |
| IAAEYYDNLPH [DEGS1_Y284] | 0.917 |
| FTNRSYDLDFD [MYC_Y12_N11S_YF] | 0.422 |
| YLTSSYINIST [IL23R_Y178] | 0.648 |
| IKGNMYFENSF [EGFR_Y112_R108K_YF] | 0.539 |
| ITVPAYFNDSQ [HSPA9_Y196] | 0.456 |

| Sequence | phosphorylation enrichment |
| --- | --- |
| ITNVLYHVVGW [GBA_Y412_L410V] | 6.81 |
| FETDFYRKGGK [INSR_Y1190_YF] | 0.468 |
| RPCVVYGGADI [DDX3X_Y301] | 0.642 |
| ASIVDYNIIGW [MYH7_Y588_G584S] | 0.498 |
| RGSQQYRALTV [TUBB8_Y281] | 0.516 |
| EDAHHYLCKEV [JAK2_Y382_A377E] | 0.411 |
| DFKIIYIVPMR [SNRNP200_Y540_A542V] | 0.366 |
| RRDRDYTNLPS [CSF1R_Y923_E920D] | 0.442 |
| LRAGVYHEKDQ [DNM2_Y626_P627H] | 0.491 |
| QGRQTYLLQPA [DDR2_Y813_P815L] | 0.555 |
| KPGLKYVTFGN [GALNTL5_Y404_YF] | 0.449 |
| TLARLYHPDST [LRIG1_Y1029] | 0.355 |
| SVTSTYSPALN [TP53_Y126_C124S] | 0.379 |
| EYGFRYELVQY [UGGT2_Y1289] | 0.631 |
| RDMMDYMLQGV [CYP21A2_Y259] | 0.488 |
| IRTIDYRYTVW [IDS_Y497] | 0.422 |

Test system: c-Abl (mouse)
Experiment: as above

| Sequence | phosphorylation enrichment |
| --- | --- |
| EAVSIYQFHGQ [CBLC_Y402] | 0.969 |
| VMSGPYELKAL [IL1B_Y140] | 0.481 |
| ANSPVYVPTTR [GATA6_Y188_S184N] | 0.52 |
| GLPQTYCVSGP [DYSF_Y1684] | 0.583 |
| DDSNLYINVKL [MTHFD1_Y52] | 1.08 |
| FPKDVYVDSKD [NDUFAF4_Y69_L65P] | 0.543 |
| VSRGRYRPQEC [B4GALT4_Y113] | 0.545 |
| QPGDIYHQTWA [GBA_Y244] | 2.9 |
| MRTMGYMPTEM [CABP5_Y62] | 0.447 |
| SVVVPYEPPED [TP53_Y220_V225D] | 0.772 |
| GEHSIYCTVNN [CD55_Y266] | 1.98 |
| PNRILYGDFRQ [MYH6_Y717] | 0.658 |
| IAAEYYDNLPH [DEGS1_Y284] | 0.808 |
| FTNRSYDLDFD [MYC_Y12_N11S_YF] | 0.77 |
| YLTSSYINIST [IL23R_Y178] | 1.11 |
| IKGNMYFENSF [EGFR_Y112_R108K_YF] | 0.897 |
| ITVPAYFNDSQ [HSPA9_Y196] | 0.785 |

| Sequence | phosphorylation enrichment |
| --- | --- |
| ITNVLYHVVGW [GBA_Y412_L410V] | 4.13 |
| FETDFYRKGGK [INSR_Y1190_YF] | 0.539 |
| RPCVVYGGADI [DDX3X_Y301] | 0.703 |
| ASIVDYNIIGW [MYH7_Y588_G584S] | 0.92 |
| RGSQQYRALTV [TUBB8_Y281] | 0.84 |
| EDAHHYLCKEV [JAK2_Y382_A377E] | 0.657 |
| DFKIIYIVPMR [SNRNP200_Y540_A542V] | 1.74 |
| RRDRDYTNLPS [CSF1R_Y923_E920D] | 1.65 |
| LRAGVYHEKDQ [DNM2_Y626_P627H] | 0.877 |
| QGRQTYLLQPA [DDR2_Y813_P815L] | 0.693 |
| KPGLKYVTFGN [GALNTL5_Y404_YF] | 0.551 |
| TLARLYHPDST [LRIG1_Y1029] | 0.672 |
| SVTSTYSPALN [TP53_Y126_C124S] | 0.586 |
| EYGFRYELVQY [UGGT2_Y1289] | 0.932 |
| RDMMDYMLQGV [CYP21A2_Y259] | 0.962 |
| IRTIDYRYTVW [IDS_Y497] | 0.695 |
